54 variants from the RNAGym collection of RNA variant scans (doi:10.7554/elife.80360) can be followed below.

To fix the notation:
B1: Twister Ribozyme (parent)
chain: AACACUGCCAAUGCCGGUCCCAAGCCCGGAUAAAAGUGGAGGGGGCGG

In the data set the parent is B1. The data set can be described thus: self-cleavage, relative activity (ratio to wild type); higher = more cleavage; co-transcriptional.
Consider AACACUGCCAAUGCCGGUCCCAAGCCCGCAUCAAAGUGGAGGGGGCGG [G29C A32C], for which the self-cleavage worked out at 0.662.
Take AACACUGCCAAUGCCGGUCCAAAGCCCGGAUUAAAGUGGAGGGGGCGG [C21A A32U]: the self-cleavage came out at 0.152.
As for AACACUGCCAAUGCCGGACGCAAGCCCGGAUAAAAGUGGAGGGGGCGG [U18A C20G], the figure is 0.0551; as for AACACUUCCAAUGCCGGUCCCAAGCGCGGAUAAAAGUGGAGGGGGCGG [G7U C26G], 0.0462; as for AACACUUCCAAUGCCGGUCCCAAGCCCGGAUAAAAGUGGAGGGGGCCG [G7U G47C], 0.0954.
As for AACACUGCCAAUGCCGGUCCCAAGCCCAGAUAAAAGUUGAGGGGGCGG [G28A G38U], the figure is 0.681; as for AACACUGACAAUGCCGGUCCCAAGCCCGGAUAUAAGUGGAGGGGGCGG [C8A A33U], 0.28.
Next, AACACUGCCAAGGCCGGUCCCAAGCCCGGAUAAAAGUCGAGGGGGCGG [U12G G38C]: 0.881.
With AACACUGCCAAUGCAGGUCCCAAGCCCGGAUAAGAGUGGAGGGGGCGG [C15A A34G], the self-cleavage is 0.422.
As for AACACUGCCAAUGCCGGUCCCAAGCCUGGAUAAAAGUGGAGGGGGCUG [C27U G47U], the figure is 0.632; as for AACACUGCCAAUGCCGGUCCCAUGCCCGGAUAAAAGUGGAGGGGACGG [A23U G45A], 0.391; as for CACACUGCCAAUGCCGGUCCCAAGCCCGGAAAAAAGUGGAGGGGGCGG [A1C U31A], 0.168.
In the case of AACACUGCCAAUGCCGGUCCCCCGCCCGGAUAAAAGUGGAGGGGGCGG [A22C A23C], the self-cleavage worked out at 0.148.
Take AACACUGCCAAUGCCGGUCCCAAGCCCGGAUAAACGUGGAGGGGGUGG [A35C C46U]: the self-cleavage came out at 0.879.
As for AACACUGCUAAUGCCGGUCCCAAGCCCGGAUAAAAAUGGAGGGGGCGG [C9U G36A], the figure is 0.281.
For the variant AACACUGCCAAUGCCGGUCCCAAGCCCGGAUAAAAGGGGAGGGGGCUG [U37G G47U], the self-cleavage came to 0.724.
For AACACUGCCAAUGCCGGUCCCAAGCCCGGAUAAAAGUGUAGGGGGCGG [G39U], the self-cleavage turned out to be 0.232.
Consider AACACUGCCAACGCCGGUCCCAAGCCCGGAUAAAAGUGCAGGGGGCGG [U12C G39C], for which the self-cleavage was 0.127.
For AACACUUCCAAUGCCGGUCCCAAGCCCGGAUAAAAGUGGAGGCGGCGG [G7U G43C], the self-cleavage stood at 0.0634.
With AACACUGCCAAUGCCGGUCCCAUGCCCGGACAAAAGUGGAGGGGGCGG [A23U U31C], the self-cleavage is 0.682.
Next, AACACUGCCAAUGCGGGUCCCAAGCCCGGAUAAAAGUGGAGGGGGUGG [C15G C46U]: 0.075; AACACUGCCAAUGCCGGUCCCAAGCCCGGAUAACAGUGGACGGGGCGG [A34C G41C]: 0.111.
With AACACUGCCAAUGCCGGUCCCGAGCCCGGAUAAAAGGGGAGGGGGCGG [A22G U37G], the self-cleavage turned out to be 0.0844.
As for AACACUGCCAAUGCCGGUAGCAAGCCCGGAUAAAAGUGGAGGGGGCGG [C19A C20G], the figure is 0.093; as for AGCACUGCCAAUGCCGGUCCCAAGCCCGGAUAAAAGUGGCGGGGGCGG [A2G A40C], 0.138.
Next, AACACUGCCAAUGCCGGUCCCAAGCCCGGAUUAAAGUGCAGGGGGCGG [A32U G39C]: 0.144.
Next, AACACUGCCAAUGCCGGUGCCAAGCCCGGAUAAAAGUGGAGGGGGCUG [C19G G47U]: 0.138; AACACUGCCAAUGCCGGUCGCAAGCCCGGAUAAAAGCGGAGGGGGCGG [C20G U37C]: 0.0961; AACACUGCCAAUGCCGGUCCCAAGCCCGGAUAUAAGUGGCGGGGGCGG [A33U A40C]: 0.234.
For the variant AACACUGCCAGUGCCGGUCCCAAGCCCGGAUAAAAGUGGAGGGAGCGG [A11G G44A], the self-cleavage came to 0.778.
Next, AACGCUGCCACUGCCGGUCCCAAGCCCGGAUAAAAGUGGAGGGGGCGG [A4G A11C]: 0.663.
As for AACACUGCCAAUGCCGGUCCCAAGGCCGGAUAAAAGUGGAGGGGGCGU [C25G G48U], the self-cleavage was found to be 0.21.
Next, AACACUGCCAAUGCUGGUCCCAAGCCCGGAUAAUAGUGGAGGGGGCGG [C15U A34U]: 0.68.
As for AACACUCCCAAUGCCGGUCGCAAGCCCGGAUAAAAGUGGAGGGGGCGG [G7C C20G], the figure is 0.0473; as for AACACUGCCACUCCCGGUCCCAAGCCCGGAUAAAAGUGGAGGGGGCGG [A11C G13C], 0.164.
Next, AACACUGCCAGUGCCCGUCCCAAGCCCGGAUAAAAGUGGAGGGGGCGG [A11G G16C]: 0.406.
For AACACUGCCAAUGCCGGUCCCAAGCCAGGAUAAAAGUGGAGGGGGCCG [C27A G47C], the self-cleavage was 0.183.
Next, AACACUGCCAAUGCCGGUCCCAAGCCCGGAUAAAAUUGGAGGUGGCGG [G36U G43U]: 0.15; AACACUCCCACUGCCGGUCCCAAGCCCGGAUAAAAGUGGAGGGGGCGG [G7C A11C]: 0.0664.
For the variant AACACUGGCAAUGCCGGUCCCAAGCCCGGAUAAAAGUGGACGGGGCGG [C8G G41C], the self-cleavage was found to be 0.122.
Next, AACACUGCCAAUGCCCGUCCCAAGCCCGGAUAAAAGUGAAGGGGGCGG [G16C G39A]: 0.28; AACAGUGCCAAUGCCGGUCCCAAGCCCGGAUAUAAGUGGAGGGGGCGG [C5G A33U]: 0.662.
As for AACACUGCCAAUGCCGGUCCCAAGCCCGGAUAAAAGUGCAGGGUGCGG [G39C G44U], the figure is 0.169; as for AACACUGCCAAUGCCGGUCCCAAGUCCGGAUAAAAGUGGAGGGGUCGG [C25U G45U], 0.592; as for AACAUUGCCAAUGCCGGUCCCAAGCCCGGAUAAAAGUGGAGCGGGCGG [C5U G42C], 0.287.
As for AACACUGCCAGUGCCGGUCCCAAGCCUGGAUAAAAGUGGAGGGGGCGG [A11G C27U], the figure is 0.405; as for AACACUACCAAUGCCGGUCCCAAGCCCGGAUAAAAGUGGUGGGGGCGG [G7A A40U], 0.127; as for AACACUGCCAAAGCCGGUCCCAAGCCCGGAUAAAAGGGGAGGGGGCGG [U12A U37G], 0.925.
Take AACACUGCCAAUGCCGGUCCCAAUUCCGGAUAAAAGUGGAGGGGGCGG [G24U C25U]: the self-cleavage was 0.0725.
As to AACAAUGCCAAUGCCGGUCCCAAGCACGGAUAAAAGUGGAGGGGGCGG [C5A C26A], the self-cleavage is 0.1.
As for AACACUGCCAAUGCCGGUCCCAAGCCCGGAUAAAAGUGGAGGGAGCGG [G44A], the figure is 0.959; as for AACACUGCCAAUGGCGGUCCUAAGCCCGGAUAAAAGUGGAGGGGGCGG [C14G C21U], 0.0834.
In the case of AACACUGCCAAUGCCGGUCCCAAGCCCGGAUAAAAGUGGAGGGGGCUA [G47U G48A], the self-cleavage came to 0.819.
For the variant AAUACUGCCAAUGCCGGUCCCAAGCCCGGAUAAAAGGGGAGGGGGCGG [C3U U37G], the self-cleavage came to 0.406.
